Substitutions are numbered along the chain they refer to. Numbers in names are those of the source.
T1: rat α-CGRP (Rattus norvegicus, UniProt P01256)
T1 construct: rat α (1-37); purchased GenScript Corporation or Global Peptide Services
T1 sequence (P01256 83-119 limits assumed): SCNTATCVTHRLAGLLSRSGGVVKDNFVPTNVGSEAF

T2: human α-CGRP (Homo sapiens, UniProt P06881)
T2 construct: 1-37 (WT); purchased GenScript Corporation or Global Peptide Services
T2 sequence (P06881 83-119 limits assumed): T1 sequence (P01256 83-119 limits assumed) with S1A, N3D, D25N, E35K

B1: M32: G1 variant; L1 R28N T30G; H2 E54K A57H; HC-FW3 L99T A100V (antibody, V domains shown)
VH: EVQLVESGGGLVQPGGSLRLSCAASGFTFSNYWISWVRQAPGKGLEWVAEIRSKSDHSATHYAEAVKGRFTISRDNAKNSLYLQMNSLRAEDTAVYYCTVYFDYGLAIQNYWGQGTLVTVSS
VL: EIVLTQSPATLSLSPGERATLSCKASKNVGTYVSWYQQKPGQAPRLLIYGASNRYLGIPARFSGSGSGTDFTLTISSLEPEDFAVYYCSQSYNYPYTFGQGTKLEIK
B2: M37: G1 variant; L1 R28N T30S; H2 A57G; HC-FW3 L99T A100V (antibody, V domains shown)
VH: B1 VH with K54E, H57G
VL: B1 VL with G30S
B3: M36: G1 variant; L1 R28N T30R; HC-FW3 L99T A100V (antibody, V domains shown)
VH: B1 VH with K54E, H57A
VL: B1 VL with G30R
B4: M39: G1 variant; L1 R28N; L2 G50A L56T; H2 A57N S58Y; HC-FW3 L99T A100V (antibody, V domains shown)
VH: B1 VH with K54E, H57N, S58Y
VL: B1 VL with G30T, G50A, L56T
B5: M35: G1 variant; L1 R28N T30G; H2 E54K A57S; HC-FW3 L99T A100V (antibody, V domains shown)
VH: B1 VH with H57S
VL: B1 VL
B6: M41: G1 variant; L1 R28N; L2 G50A L56T; H2 E54K A57N E64D; HC-FW3 L99T A100V (antibody, V domains shown)
VH: B1 VH with H57N, E64D
VL: B1 VL with G30T, G50A, L56T
B7: M34: G1 variant; L1 R28N T30G; H2 E54K A57N S58T; HC-FW3 L99T A100V (antibody, V domains shown)
VH: B1 VH with H57N, S58T
VL: B1 VL
B8: M38: G1 variant; L1 R28N T30W; HC-FW3 L99T A100V (antibody, V domains shown)
VH: B1 VH with K54E, H57A
VL: B1 VL with G30W
B9: M40: G1 variant; L1 R28N; L2 G50A L56T; H2 E54K A57L; HC-FW3 L99T A100V (antibody, V domains shown)
VH: B1 VH with H57L
VL: B1 VL with G30T, G50A, L56T
B10: M33: G1 variant; L1 R28N T30G; H2 E54K A57N S58G; HC-FW3 L99T A100V (antibody, V domains shown)
VH: B1 VH with H57N, S58G
VL: B1 VL

Columns and labels:
[1] = target: T1, rat α-CGRP; experiment: Biacore SPR affinity of Fab fragments to N-biotinylated rat α-CGRP on SA chip; format: binding; conditions: 37° C., screening mode except underlined values
Summary of the method: (§1)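 HBS-EP pH 7.4 running buffer at 25° C. or 37° C.; N-biotinylated CGRP captured on streptavidin SA chip (<50 RU for kinetics), Fab titrated over surface with regeneration by 25 mM NaOH/25% ethanol. Titrations globally fit to 1:1 Langmuir model; KD=koff/kon, with 2-hour dissociation for very slow off-rates.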

[2] = target: T2, human α-CGRP; experiment: Biacore SPR affinity of Fab fragments to N-biotinylated human α-CGRP on SA chip; format: binding; conditions: 37° C., screening mode except underlined values
Summary of the method: as §1

Molecule	α-rat koff [1]	α-human koff [2]
B1	0.00296 s⁻¹	0.000271 s⁻¹
B2	0.00145 s⁻¹	0.000226 s⁻¹
B3	0.00479 s⁻¹	0.000239 s⁻¹
B4	0.00995 s⁻¹	0.000425 s⁻¹
B5	0.00399 s⁻¹	0.000339 s⁻¹
B6	0.00453 s⁻¹	0.00021 s⁻¹
B7	0.00217 s⁻¹	0.000646 s⁻¹
B8	0.00511 s⁻¹	0.000218 s⁻¹
B9	0.36 s⁻¹	0.00128 s⁻¹
B10	0.00922 s⁻¹	0.00075 s⁻¹

Source: patent US20190071490A1, “Preventing Post-Ictal Headaches” (Beth Israel Deaconess Medical Center, Inc., priority 2017, published 2019)
